From the domain aggregation screens of Martell et al. (2025) come the findings set out here.

Bounds are passed on as bounds.
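Note: 20 min heating vs room temperature control held 20 min.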

This data set can be described thus: soluble fraction after stress (log2 fold change); higher = more stays soluble; pooled small domains, quantitative proteomics. The conditions noted are these: stress: 75 degC.
“HMKEKQLMTLDDDLYAFLLKHPGIIQKDIYNHFPYDIKGVIADTLYAWDKTGKIKRTKSGNSYIIYT”: the “soluble fraction (log2)” value is -0.228. Consider “HMKELAADFSRRIINARTSKGWSQADLGQRMAETINVIKSAESGKPPTDAVVKKFETVLGVILM”, for which the “soluble fraction (log2)” value is -1.06.

For “HMKELLDRIFLHETMRRVSQDATITFSKKVYEVPQKFIGRQVTVQYDPEDLSRVYVKDLNFPEPVMVYPVQ”, the “soluble fraction (log2)” value is -1.59.

As to “HMKELTPEQLQHNWNNLRQFIDVNFSGDRLGGLNKMYDYFEERMMFAPASGKQHYHNAFAGGYVEHVMHV”, the “soluble fraction (log2)” value was found to be 0.209. As for “HMKEPGFAPPVRALAAAPITVLAQVAGTNPGEIRARLRAAGYPVASDQQSVQSLVGGDLKAQIGVLNRILA”, the figure is -0.286; as for “HMKEQIKVPDLSNKTPEEAKKELNTLGLGARKGGEESSDTVEEGLITRQEPAAGEQVDKNTQILFYVSTGK”, 0.901; as for “HMKEQLLLGFKVRSLRGIDLGFVKFIEGSAFQSFLKTDLTIIPNVPNYVKKIDNVKKIILVDWESD”, -2.8. For “HMKEQYTELDWDKVQVNDKVMIKDLNQQVTILSLPDKNNALYIQMGMIKTKVKKEKLAVYNPQLA” the value was -2; for “HMKERVSWDERLERFAKHITENESLPYPSSKEYAWFEENKALYDAGELEPVRAQSFAFLLKIMRRMNL”, -1.7; for “HMKETIIPELLQNELDKNSELNDKFNTFSPYKQREFIEYIITAKQEKTQISRLQKVILMILEGRGLNN”, -1.89. Regarding “HMKEVELENMIKAKGFKDAAVLVDERSVTVIVESERLAAGDSASIKELVSRGTGVDPQNVVII”, the “soluble fraction (log2)” value is -0.31. As to “HMKEYPEVITTSRLNVRTGPGTGYQRLGTLDQNLRVLVLTRQQGWAQIRGMLNGETVIGWVNDYYLQAID”, the “soluble fraction (log2)” value was -2.54. As for “HMKFINISIDKSGNLFINKKSIKFQDLKYNVVNLVDESKNLVVLNADENISHGYVISVLDVLRSIDGLKLA”, the figure is -2.13; as for “HMKFNEKQNEVRIAIMNFIIDNKRPFHMKQDGYDALEGITLSGRHEFQDILDVLHSRDGFSADEEGNINF”, -1.09. On to “HMKFPIITAKQDSDGKFYWAQTTDKGKTYTFILDGDGKKFPIGGTMPDVKINENGYWSVNGSSTGVLANDL”, for which the “soluble fraction (log2)” value was 0.368. As for “HMKFSVEEQFKKSFPKNTYETFSETSLKGVYEVYNGKQVYYYLPVNDVLLLGSIVTKDGKNLTQESNSKK”, the figure is -0.279. Consider “HMKGIVFTEFLDLVEERFGLEMVDAIISQSKLESKGVYTSIGTYSFSELLQLLQNLKIQTGISIDNLLLI”, for which the “soluble fraction (log2)” value is -0.961. Regarding “HMKGKIYFFEEGVDRVGGVERVISTLANEFSKKYKVNVISFYKTRKETFFKYNSDIDITYLSK”, the “soluble fraction (log2)” value came to 0.152.

In the case of “HMKGLDRATNKALLLKHIIDNGSTGTRFSELRQVLPSLTRGSISSLLIELRSEGKIHSIGVTRNARWYPTE”, the “soluble fraction (log2)” value was -1.79. As for “HMKGLKERLLYFIEYKGLPVQMFEKIVGLSNAAVSKMGDNTRRSTIDKISKSFPELDVNWLLTGQGEMLSY”, the figure is -0.942.

On to “HMKGPAFAKIDLTQLPAGLTSFLNTNAAGFKLDYAVAITKDSVIIEYHVGVTIGTAKKEFHLDPNFQLLP”, for which the “soluble fraction (log2)” value was -0.499.

In the case of “HMKGPLKDLGPDPVTGKSILVKDGKFGTYVTDGETNATLRRGDIVELLTLERGMELLAEKRARATQ”, the “soluble fraction (log2)” value amounted to 0.0771.

Regarding “HMKGTVKFFNESKGFGFITEEGTNKEHFVHVSGLVDEIRENDEVEFDLQDGRKGLNAVNVRV”, the “soluble fraction (log2)” value was determined as 0.363.

Take “HMKGVENLSDIDIQKALNNARANLSKNKAKLEQAGDDEKKKASALAMIQKWETTKKAIEEEIEARKKKSLN”: the “soluble fraction (log2)” value is -0.491. Consider “HMKHAIKEKIRNEYVHGYLNEEGYRVMPTLDELIRKYEVPASSTYRASSKEGWKKQKEAFLEHLRGEIDA”, for which the “soluble fraction (log2)” value was -0.492. As for “HMKHFFIIAGGKIEDAFAIEVLKGFAEKTVIAADSGMEFLRRNEIVPQVIIGDFDSVSKETLEWFQKK”, the figure is -0.751; as for “HMKHKGILTTWNDDRGFGFITPKEGKEPVFVHISAFARGQGRPVLNASLTYRLVRDDQQRPRAEAVRL”, -1.33; as for “HMKHKHHIIPKHKGGTDHPDNLIELTVEQHAKAHWVEFMLDGREEDYWAWKGLEGVASKKDIIYALSKR”, -0.0688. As to “HMKHSEAIELGKRMLSQALQDVSLVLKKIPEERLQAVAAELNLKTPDELFEKIGLGERLAALVARRLLP”, the “soluble fraction (log2)” value is -0.851. As for “HMKHTQTDEGELLSTLRTLFPNSSSSSLRKMLTQGRILVNQEVVHRAKHALQAGDEIEVLARQ”, the figure is -0.13; as for “HMKHVDLDNNERYIYGIIGSTKIHVDEVVEKSGMETKHVMAILTNLELKEAIKGIPGGFYLR”, -2.02. Turning to “HMKHVENLSDEKTIQAIQENPYMQYLLGLSKFTEKPVFVPELFVLIRKRLDQDFFNMLTLILAEADG”, the “soluble fraction (log2)” value was no less than 1.04. As for “HMKHYIDFIAEQLKTLTAIPSPSGYTKNATDYLMKLLQDMGYEPKLSRKGNVFVTLGGDGEPLVLAAHVD”, the figure is 0.112; as for “HMKIDELKAYLFQSVRVKNPHTQEYDTLKIIELNYYQDKIKAKLKNSDDDYITEMIFESIKHLQNFLG”, -2.81; as for “HMKIEEIAYSTFISMLDKGEVSKVELKDNLIYIETKADDKTIYTTGRMEDPDLTNRLIEAGVDFTEIE”, -0.196. For “HMKIELSDNEKIIYDLLSSQHVLLSEIKDKAGLSNKAWDKSTKSLRKLGLIAVEKKDDDIYISKL” the value was -0.0288.

Consider “HMKIGIYPGTFDPITHGHTDIIRRSLRVFDKVVVAVAPNPSKHPLFTLTERLEMIRIVMKELEHVEVT”, for which the “soluble fraction (log2)” value was 0.159. Turning to “HMKILVTDDNIRIDKYLTTQTEYSRSTIQKMIESNNILVNNKPTKSNYILRNNDEITIDENFNEE”, the “soluble fraction (log2)” value is -0.00567. As for “HMKININEASRYELMTIGGLDAGRADMLMQYRQKREISSADELKGINGFASYDTAKLQKSFEISP”, the figure is -0.0573; as for “HMKIRKAVIPAAGLGTRVLPASKSIPKEMLPIVDKPVIQYIVEEAVKAGITEILIITGRGKGAIEDHFDRS”, -0.391; as for “HMKISIDNPSVLLDKLATLFPDTSKNKLRKMLTEGRIYVNDNIEHRAKRELINGDTVKILDKTTSKE”, -0.121. “HMKITAPLPGTITEIKVKVGDTVKNGDTVVVLEAMKMQNNIEAESNGTVTAIFVNKGDTVMEGDALMTI”: the “soluble fraction (log2)” value was -0.075. As for “HMKITTKNYFKAIAEVGVENLPAALKKSHDLIEERTSKGADWSVYEHDAEVRRVFDLTFEKLFEFIDQ”, the “soluble fraction (log2)” value was -1.88. Regarding “HMKKAITMGDIITVKELSEKIGIQVAEIIKKLMGLGILATINKELDYDTANVIASEFHIELERK”, the “soluble fraction (log2)” value came to 0.117. As to “HMKKASLSTVEKKLMKQNYSNDTMENRLARVESYMFGTVFSSDDTQTRIDRISSAYNAQKSS”, the “soluble fraction (log2)” value was -0.0731. On to “HMKKDLATYAYEHIKQMVIDRELMPGERIQQEVLARELGISRTPLVTALNRLASENLVELEANKGFSVRRF”, for which the “soluble fraction (log2)” value was -0.451.

As to “HMKKEETEAEELEEKFTSAQIKQAYGILNDPRYKQGNYSGAVNVINKIAPGLADHPDVKNALKRANEEL”, the “soluble fraction (log2)” value is 0.809. Regarding “HMKKGRIGSIIQYVREHPGVSSSEIITGLGLDISPATIRRDLTLLVAENKLSVEGQNKGTKYFVSPTYDMF”, the “soluble fraction (log2)” value is -1.22. For the sequence “HMKKIDVEVVRSQLIAWMADNGKSQAEVSKSMGISASALSMFIKGTYTGDNEQIGRKAAALMDLVHRQSA”, the “soluble fraction (log2)” value was -1.41. As to “HMKKILITGNSGYIGSHLSKMLENDYEVHGLDIRQPQHPVAKFYEQDINRPINIEEEYDAVIHLAALV”, the “soluble fraction (log2)” value is -0.348. On to “HMKKILLGDVNLDGKVDVNDVTLLQRYIAGETEVITSKDALTATNFNKDGNIDVLDVTDIQTFIANSE”, for which the “soluble fraction (log2)” value is -0.293.

“HMKKLTNKQIIFFAEKLAHHSDFASKYSKVGESYEEFAIRLEKELNTPQKVEFYSSYLEKVGFK”: the “soluble fraction (log2)” value is -2.54. As to “HMKKPKTVLSEEQKEFIINQAQDGVSAYDIARILFPSVNVTNLSKEVIDVAEFIRDTDIKLLADSE”, the “soluble fraction (log2)” value came to 0.00266.

In the case of “HMKKPRKTSRKSIENAAIFYLQRFSSSIENLRRVLMRRVYRSAQYHNTKPEEDAKIVDSIIYRLIETGVL”, the “soluble fraction (log2)” value was -0.322. On to “HMKKSRLHSVLEEIPGIGEKRRKILIKHFGTVEAIKKSSLEELARIKGMNRRAAQNVLEYLK”, for which the “soluble fraction (log2)” value is -0.775. For “HMKKVIKIEENVSLQKLAALMSLKVTDVLMRLLSMGMSGVNINSTIDADTAKILASEFGWTVED” the value was -0.529. As for “HMKKVKVPNVVGMSLKEARDALSAVNIAVNQVAGSVEDKSVVTEQSLKAGDEVDEGSSLNLTTEYK”, the figure is 0.878; as for “HMKKYLTETEAAAYLNMPVEEIKAAITKGEIEQYVKTSSGYTISVEELDKFFGQKAYDTMTSNNS”, 0.0786; as for “HMKLASIGDNIHTLRKNKGLTQSQLAGKLGVNVDTISNYEKGVSTPDFDIVEKLVNIFNVDAHSLLFK”, -0.287.

For the sequence “HMKLEKKWIEAVEKYRRYVLSTGIKHVQKPIEFENFRLGQWYADVRQSYRRGTLSKEKLLEIREINPDFPN”, the “soluble fraction (log2)” value was -2.17.

With “HMKLFGTPGSPFARKVRIVLEEKRIPHEYIIERGSAPGSRVPQYNPLGKVPTLVLDDGRGLYDSPVIVEYL”, the “soluble fraction (log2)” value is -0.531. For “HMKLGYTVHGNVVTVKAVANGISLYNTIGQKVAESTDGQTVKAPAHGVYILSVQGKSGSRETAKIVI” the value was -1.67. As for “HMKLHQDLQIKVIDAANNKVEFIDTATGTSLATRTLDVNGVSKARGFEATLYGVVEDNDVFHIA”, the figure is 0.121. Turning to “HMKLIRIPFILTEGPDSQKITIDVDGDEEFRLGDVFEEDDKLWTVNQILVSGERKAKRSMAGEVMRISALR”, the “soluble fraction (log2)” value is -1.2.

“HMKLNEQSMQVIDRIVDRHRGRPGPVKLMLHDVQKELGYIPFEAMEKIAAASGVSADEVYGVVTFYTQFTT”: the “soluble fraction (log2)” value is -0.919. Take “HMKLNETIAEARKRKGLTQEQLAQKLYVTRQAVSRWERGEVVPGIDMLKLIAITLEEPIVHLL”: the “soluble fraction (log2)” value was -1.64. For “HMKLQIQNIEIDKKISELAEGVSAEKLPFLAKLIDRSKLLNDKGEINEDSVKAAIEEVVKAFPDFK” the value was 0.0511; for “HMKLRKINLIGIFGSKTAPSALVRLTNGRVLKVGLGELLDGGRVTAIGRSSLTYNKSGKSITLNMPI”, -4.08; for “HMKLRYRTQEELLGVAREYRRRGLPLSVIVIDFYHWTKFGDWKFDPAYWPDPVGMVRELRDMGVEAAV”, -0.17.
